From patent US20100183640A1

Target: purified human fibronectin (hFn), from human plasma (human) (UniProt P02751)
Assay: cell-based or functional assay

% Inhibition of adhesion of NIH-3T3 cells to hFn-coated wells (50 ng rhUG): 54%
Percent Inhibition of cellular adhesion to fibronectin, Hela cell line (50 ng): -5%
Percent Inhibition of cellular adhesion to fibronectin, NIH-3T3 cell line (50 ng): 54%
B1: recombinant human uteroglobin (ligand)
chain: EICPSFQRVIETLLMDTPSSYEAAMELFSPDQDMREAGAQLKKLVDTLPQKPRESIIKLMEKIAQSSLCN
